Results on two molecules are retold here after patent publication US9809653B2, “Anti-LAMP1 antibodies and antibody drug conjugates, and uses thereof” (SANOFI, priority 2012, dated 2017).

“Also recorded” adds a separate entry of the source.

In experiment [1] the target is T1, cell surface LAMP1 on Patient-derived tumor xenografts and tumor cell lines (Homo sapiens, UniProt P11279).
T1 construct: endogenous in cells; host or cells: enzymatically dissociated patient-derived xenograft tumour cells (e.g. CR-IGR-034P, LUN-NIC-014P, BRE-IGR-0159) and tumour cell lines
T1 sequence (P11279 29-417): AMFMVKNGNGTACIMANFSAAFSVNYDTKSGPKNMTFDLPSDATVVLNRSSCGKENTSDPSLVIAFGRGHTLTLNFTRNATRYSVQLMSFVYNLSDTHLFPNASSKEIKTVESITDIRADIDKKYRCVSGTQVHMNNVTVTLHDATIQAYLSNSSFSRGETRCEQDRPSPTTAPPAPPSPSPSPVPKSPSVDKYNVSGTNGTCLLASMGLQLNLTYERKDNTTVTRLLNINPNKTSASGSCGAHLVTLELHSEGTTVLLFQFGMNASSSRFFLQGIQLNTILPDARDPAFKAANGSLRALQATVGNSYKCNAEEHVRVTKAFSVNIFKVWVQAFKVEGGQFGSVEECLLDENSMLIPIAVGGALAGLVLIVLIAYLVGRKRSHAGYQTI
Put plainly: Antibody binding capacity (ABC) by FACS on patient-derived xenografts and tumor cell lines. How it is done:
Antibody binding capacity of antibody was determined using Mouse IgG Calibrator kit (Biocytex #7208) or Human IgG Calibrator Kit (Biocytex #CP010) according to the manufacturer's instructions.
The panel of tumor cells comprises Patient-derived tumor xenografts from different origins and tumor cell lines. FIG. 2 illustrates the expression profile and Table 4 summarizes the antibody binding capacity results.
The panel of tumor cells comprises Patient-derived tumor xenografts from different origins and tumor cell lines.

Experiment [2] deals with T2, recombinant human LAMP1 coated on plate (Homo sapiens, UniProt P11279).
T2 construct: made in house; host or cells: HEK293 (293-F), transient expression, IMAC-purified
T2 sequence (P11279 with tags, fused parts or gaps): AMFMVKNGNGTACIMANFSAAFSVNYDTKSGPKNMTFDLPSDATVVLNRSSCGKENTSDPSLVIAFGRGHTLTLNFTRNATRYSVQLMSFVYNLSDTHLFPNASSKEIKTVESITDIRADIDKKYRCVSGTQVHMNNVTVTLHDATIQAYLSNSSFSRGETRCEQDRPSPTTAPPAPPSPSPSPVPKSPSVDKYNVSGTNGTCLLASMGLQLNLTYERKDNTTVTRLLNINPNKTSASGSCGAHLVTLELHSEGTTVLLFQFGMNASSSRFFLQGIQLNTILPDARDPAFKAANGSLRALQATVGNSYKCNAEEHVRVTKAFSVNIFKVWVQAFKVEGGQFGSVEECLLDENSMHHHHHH
The experiment can be described thus: Binding competition between anti-LAMP1 mAbs by ELISA. An excerpt:
MAb format was chosen so that the two mAbs had different Fc domains (either human or murine). […] The results were reported as a percentage of the value obtained from the mAb alone at the same concentration.
MAb format was chosen so that the two mAbs had different Fc domains (either human or murine). Individual measurements of mAb binding could be performed specifically by their unique specific binding to Fc (with Peroxidase-AffiniPure Goat Anti-Human IgG Ab, Fcγ Fragment Specific (Jackson 109-035-098) or with Peroxidase-AffiniPure Goat Anti-Mouse IgG Ab, Fcγ Fragment Specific (Jackson 115-035-164)). Results were reported as a percentage of the value obtained from the mAb alone at the same concentration, see Table 8.
Background: An ELISA detects its analyte on a solid surface through an enzyme-linked reagent.

The next experiment addresses T3, Mouse LAMP1 (Mus musculus, UniProt P11438).
T3 construct: made in house; host or cells: HEK293 (293-F), transient expression, IMAC-purified
T3 sequence (P11438 with tags, fused parts or gaps): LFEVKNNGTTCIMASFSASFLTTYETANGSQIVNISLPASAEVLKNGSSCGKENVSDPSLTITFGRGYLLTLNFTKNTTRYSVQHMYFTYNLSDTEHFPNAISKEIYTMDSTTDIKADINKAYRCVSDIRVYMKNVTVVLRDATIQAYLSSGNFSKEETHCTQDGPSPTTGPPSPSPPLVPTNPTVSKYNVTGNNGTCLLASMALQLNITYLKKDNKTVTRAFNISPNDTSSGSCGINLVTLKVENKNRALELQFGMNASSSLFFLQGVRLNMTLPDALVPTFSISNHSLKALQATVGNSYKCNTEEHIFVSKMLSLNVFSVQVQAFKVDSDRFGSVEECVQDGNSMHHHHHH
Put plainly: ELISA on mouse LAMP1 extracellular domain. The format is binding. An excerpt:
The high level of glycosylation of the antigen required a specific approach to determine the binding site of the anti-LAMP1 mAbs on LAMP1. […] This absence of binding was used to design several chimeric LAMP1 proteins in which one or several of the LAMP1 domains (Loop1-Loop4) in the human construct were replaced by the murine counterpart. The absence of binding once the binding site of the antibody was replaced by the murine counterpart allowed for identification of the antibody binding side.
Secreted LAMP1 proteins described in example 6.2 were used to identify the binding domain to anti-LAMP1 mAbs by ELISA.

Another experiment has as its target T4, recombinant human LAMP2 (Homo sapiens, UniProt P13473).
T4 construct: purchased R&D Systems 6228-LM
Put plainly: Specificity ELISA on recombinant human LAMP2. The format is binding. How it is done: LAMP2 is the closest member of the LAMP family with 35% sequence identity to LAMP1. […] Anti-LAMP1 antibodies were added to the plates and detected by using rabbit anti-mouse IgG conjugated with horseradish peroxidase (Sigma; #A9044). Antibody binding was visualized by adding TMB-H2O2 buffer and read at a wavelength of 450 nm.
LAMP2 is the closest member of the LAMP family with 35% sequence identity to LAMP1. Specificity of MAb4 was evaluated by ELISA as described in example 4.6 with either LAMP1 or LAMP2 soluble proteins, as shown in FIG. 41.

Where [3] appears, read: mAb alone 0.06 mg/L, Secondary Ab Anti-Human IgG_HRP.
Where [4] appears, read: mAb alone 0.06 mg/L, Secondary Ab Anti-Mouse IgG_HRP.
Where [5] appears, read: mAb alone 15 mg/L, Secondary Ab Anti-Human IgG_HRP.
The mark [6] stands for this setting: mAb alone 15 mg/L, Secondary Ab Anti-Mouse IgG_HRP.

T4 sequence (P13473 with tags, fused parts or gaps): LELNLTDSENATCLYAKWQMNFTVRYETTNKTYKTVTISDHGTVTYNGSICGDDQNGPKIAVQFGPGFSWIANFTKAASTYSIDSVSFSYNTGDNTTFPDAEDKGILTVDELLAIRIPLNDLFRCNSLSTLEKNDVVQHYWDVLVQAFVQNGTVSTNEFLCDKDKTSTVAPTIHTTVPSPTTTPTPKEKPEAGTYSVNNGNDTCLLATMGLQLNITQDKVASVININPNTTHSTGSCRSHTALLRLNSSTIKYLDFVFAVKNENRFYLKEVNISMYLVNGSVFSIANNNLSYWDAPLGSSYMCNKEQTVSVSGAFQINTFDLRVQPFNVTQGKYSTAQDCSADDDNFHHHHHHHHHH

B1: MAb1: murine monoclonal anti-LAMP1 antibody, VH SEQ ID NO: 1, VL SEQ ID NO: 5 (antibody, V domains shown)
VH: QVQLQQSGAELVKPGASVKMSCKASGYIFTNYNIHWVKKSPGQGLEWIGAIYPGNGDAPYSQKFKDKATLTADKSSSTTYMQLSRLTSEDSAVYYCVRANWDVAFAYWGQGTLVSVSA
VL: DIQMTQSPPSLSASLGGKVTITCKASQDIDRYMAWYQDKPGKGPRLLIHDTSTLQPGIPSRFSGSGSGRDYSFSISNLEPEDIATYYCLQYDNLWTFGGGTKLEIK
modifications: Antibody Fragment; antibody fragment
With B1, the “Antibody Binding Capacity (ABC)” value is given as 230,000 in experiment [1] (CR-IGR-034P/colorectal PDX); 25 000 in experiment [1] (CR-LRB-003P/colorectal PDX); 140,000 in experiment [1] (CR-LRB-010P/colorectal PDX); 6,000 in experiment [1] (Colo205/colon cell line); 6,000 in experiment [1] (LS174T/colon cell line); 104,000 in experiment [1] (LUN-NIC-014/lung PDX). Besides, the “Antibody Binding Capacity (ABC)” value in experiment [1] (LUN-NIC-025/lung PDX) is 33,000; in experiment [1] (OVA-IGR-0022/ovary PDX), 67,000; in experiment [1] (STO-IND-006/stomach PDX) it was 90,000; in experiment [1] (SW480/colon cell line), 2,500. Besides, the “competition with H4A3 for binding to LAMP1” value in experiment [2] (ELISA) is “does not compete”. Besides, the “Percentage of signal compared to mAb control alone” value in experiment [2] (setting [3]) was 0%; in experiment [2] (setting [4]), 100%; in experiment [2] (setting [5]) it was 0%; in experiment [2] (setting [6]), 100%. The “EC50 (nM) Mouse LAMP1” value in the experiment with Mouse LAMP1 was “do not show any binding; also recorded: No binding”. Moreover, the “binding to LAMP2” value with recombinant human LAMP2 is on record as “No binding”.

B2: MAb2: murine monoclonal anti-LAMP1 antibody, VH SEQ ID NO: 8, VL SEQ ID NO: 12 (antibody, V domains shown)
VH: QVQLQQSAAELARPGASVKMSCKASGYTFTSYTMHWVKQRPGQGLEWIGYFNPSSGYPEYNQKFKDKTTLTADKSSNTAFIQLNSLTSEDSAVYYCSRGYYYGSRGYALDFWGQGASVTVSS
VL: NIVLTQSPVSLAVSLGQRATISCRASESVDINGNTFMHWYQQKPGQSPKLVIYAASNIESGVPARFSGSGSSTDFTFTIDPVEADDVATYYCQQNIEDPWTFGGGTKVEIK
modifications: antibod fragment; antibody fragment
As to B2, the “Antibody Binding Capacity (ABC)” value in experiment [1] (CR-IGR-034P/colorectal PDX) is on record as 180,000; in experiment [1] (CR-LRB-003P/colorectal PDX) it was 22 000; in experiment [1] (CR-LRB-010P/colorectal PDX), 95,000; in experiment [1] (Colo205/colon cell line) it was 4,000; in experiment [1] (LS174T/colon cell line), 3,600; in experiment [1] (LUN-NIC-014/lung PDX) it was 102,000. Besides, the “Antibody Binding Capacity (ABC)” value in experiment [1] (LUN-NIC-025/lung PDX) is recorded as 27,000; in experiment [1] (OVA-IGR-0022/ovary PDX) it was 60,000; in experiment [1] (STO-IND-006/stomach PDX), 64,000; in experiment [1] (SW480/colon cell line) it was 1,700. In addition, the “competition between MAb2 and MAb3 for binding to LAMP1” value in experiment [2] (ELISA) is “partially compete”. Also, the “competition with H4A3 for binding to LAMP1” value in experiment [2] (ELISA) was “partially competes”. The “competition with MAb1 for binding to LAMP1” value in experiment [2] (ELISA) was “No competition was observed; also recorded: does not compete”. In addition, the “Percentage of signal compared to mAb control alone” value in experiment [2] (setting [3]) is listed as 0%; in experiment [2] (setting [4]) it was 100%; in experiment [2] (setting [5]), 0%; in experiment [2] (setting [6]), 100%. Besides, the “EC50 (nM) Mouse LAMP1” value with Mouse LAMP1 is reported as “do not show any binding; also recorded: No binding”. Besides, the “binding to LAMP2” value with recombinant human LAMP2 is “No binding”.
